Measurements: US20240174727A1, “LONG-ACTING NATRIURETIC PEPTIDES AND USES THEREOF” (Eli Lilly and Company, priority 2022, published 2024)
Numbered stars: 1 amine (or outer) side, 2 acyl side, 3 side chain; on linkers, the order of the positions; unused ones are H or OH. Bridge positions count the residues as written; N and C are the ends. Square brackets hold non-standard residues; d marks the D form. * marks the point of attachment. thioacetal = thioacetal linkage between two cysteines (intrachain bond at the bracketed Cys); C20 diacid = O=C(O)CCCCCCCCCCCCCCCCCCC(=O)*; C16 diacid = O=C(O)CCCCCCCCCCCCCCC(=O)*; γGlu = O=C(O)[C@H](CCC(=O)[*:2])N[*:1]; 4Pal = N[C@@H](Cc1ccncc1)C(=O)O; βAla = NCCC(=O)O

T1: human NPRA (human, UniProt P16066 33-1061)
T1 sequence (looked up): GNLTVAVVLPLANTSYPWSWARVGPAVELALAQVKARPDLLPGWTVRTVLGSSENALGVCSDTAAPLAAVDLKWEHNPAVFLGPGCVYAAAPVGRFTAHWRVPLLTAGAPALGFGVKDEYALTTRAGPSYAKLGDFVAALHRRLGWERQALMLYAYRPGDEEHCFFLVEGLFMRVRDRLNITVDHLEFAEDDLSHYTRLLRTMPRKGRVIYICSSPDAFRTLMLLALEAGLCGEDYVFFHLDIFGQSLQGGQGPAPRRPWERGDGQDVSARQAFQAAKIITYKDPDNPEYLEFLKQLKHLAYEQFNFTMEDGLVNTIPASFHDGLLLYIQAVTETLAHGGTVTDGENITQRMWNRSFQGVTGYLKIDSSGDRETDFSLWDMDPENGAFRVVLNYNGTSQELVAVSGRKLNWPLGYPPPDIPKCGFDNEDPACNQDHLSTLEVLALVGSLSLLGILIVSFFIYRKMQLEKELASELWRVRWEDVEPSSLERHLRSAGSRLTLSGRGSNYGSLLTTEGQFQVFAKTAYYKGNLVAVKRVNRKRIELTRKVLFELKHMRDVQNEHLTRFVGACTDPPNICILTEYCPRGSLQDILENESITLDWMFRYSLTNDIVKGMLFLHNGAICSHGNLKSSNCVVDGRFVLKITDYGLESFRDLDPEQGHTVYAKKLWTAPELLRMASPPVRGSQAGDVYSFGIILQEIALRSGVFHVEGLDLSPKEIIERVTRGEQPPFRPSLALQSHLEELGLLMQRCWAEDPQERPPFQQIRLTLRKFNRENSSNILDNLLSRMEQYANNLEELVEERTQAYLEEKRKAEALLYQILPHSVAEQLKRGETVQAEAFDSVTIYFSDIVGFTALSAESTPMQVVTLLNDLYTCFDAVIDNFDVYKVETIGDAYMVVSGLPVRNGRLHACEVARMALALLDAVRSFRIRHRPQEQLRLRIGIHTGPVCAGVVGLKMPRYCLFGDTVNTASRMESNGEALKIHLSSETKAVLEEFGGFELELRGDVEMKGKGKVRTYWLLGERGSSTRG

T2: rat NPRA (rat, UniProt P18910 29-1057)
T2 sequence (looked up): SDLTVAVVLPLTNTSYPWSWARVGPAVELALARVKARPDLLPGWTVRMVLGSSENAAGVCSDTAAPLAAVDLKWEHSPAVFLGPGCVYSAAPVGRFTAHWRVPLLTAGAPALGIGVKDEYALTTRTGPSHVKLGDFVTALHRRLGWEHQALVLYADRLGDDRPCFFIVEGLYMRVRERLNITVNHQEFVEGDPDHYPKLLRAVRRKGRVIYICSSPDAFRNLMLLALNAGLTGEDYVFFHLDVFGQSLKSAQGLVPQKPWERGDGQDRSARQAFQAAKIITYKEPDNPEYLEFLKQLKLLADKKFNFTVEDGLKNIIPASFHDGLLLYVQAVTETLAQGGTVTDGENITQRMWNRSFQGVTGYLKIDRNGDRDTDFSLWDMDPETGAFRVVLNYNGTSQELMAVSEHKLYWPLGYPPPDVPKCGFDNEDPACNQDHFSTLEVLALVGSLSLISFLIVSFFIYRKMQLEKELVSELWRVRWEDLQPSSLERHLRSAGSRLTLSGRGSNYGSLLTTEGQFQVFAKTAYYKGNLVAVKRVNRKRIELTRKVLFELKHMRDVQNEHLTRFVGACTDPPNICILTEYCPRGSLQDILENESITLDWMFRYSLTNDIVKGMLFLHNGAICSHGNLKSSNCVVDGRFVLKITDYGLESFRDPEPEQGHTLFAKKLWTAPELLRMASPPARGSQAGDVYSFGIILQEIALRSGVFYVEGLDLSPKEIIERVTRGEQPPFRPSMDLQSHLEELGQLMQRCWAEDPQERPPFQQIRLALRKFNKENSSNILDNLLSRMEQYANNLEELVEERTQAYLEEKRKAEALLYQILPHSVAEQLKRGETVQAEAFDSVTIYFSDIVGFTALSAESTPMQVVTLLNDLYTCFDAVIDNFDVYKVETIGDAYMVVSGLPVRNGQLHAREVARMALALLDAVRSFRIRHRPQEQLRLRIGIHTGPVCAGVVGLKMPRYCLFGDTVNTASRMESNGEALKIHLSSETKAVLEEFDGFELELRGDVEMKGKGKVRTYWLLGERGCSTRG


Experiments:
[1] = target: T1, human NPRA; assay: cell-based or functional assay
[2] = target: T2, rat NPRA; assay: cell-based or functional assay

Binder | cGMP Assay (EC50, pM) w/BSA [1] | cGMP Assay (EC50, pM) w/Casein [1] | cGMP Assay (EC50, pM) w/BSA [2] | cGMP Assay (EC50, pM) w/Casein [2]
{C20 diacid}-[γGlu]EKEKEKGEK[βAla]RSSCFGGRIDRIGHYSGLGCPSFRHGGPSSGAPPPS-NH2 (bridge 15-31 via thioacetal) [Example 70] | 92500 pM | 1840 pM | 712000 pM | 11800 pM
{C20 diacid}-[γGlu]EKEKEKGS[4Pal]RRSSCFGGRIDRIGHQSGLGCPSFRHGGKSSGAPPPS-NH2 (bridge 15-31 via thioacetal) [Example 72] | 46400 pM | 588 pM | 1.07e+06 pM | 40500 pM
XEKEKEKGSKXRSSCFGGRIDRIGHYSGLGCPSFRHGGPSSGAPPPS (HOOC-(CH2)18-CO-(γGlu)-EKEKEKGSK-βAla-RSS[CFGGRIDRIGHYSGLGC]PSFRHGGPSSGAPPPS-NH2; thioacetal linkage between the bracketed Cys) [Example 65] | – | 614 pM | – | 7420 pM
XEKEKEKGSXRRSSCFGGRIDRIGHQSGLGCPSFRHGGPSSGAPPPS (not fully specified; HOOC-(CH2)18-CO-(γGlu)-EKEKEKGS-4Pal-RRSS[CFGGRIDRIGHQSGLGC]PSFRHGGPSSGAPPPS-NH2; thioacetal linkage between the bracketed Cys) [Example 69] | 61400 pM | – | 804000 pM | –
{C20 diacid}-[γGlu]EKEKEKGEK[βAla]RSSCFGGRIDRIGHYSGLGCPSFRHGPSSGAPPPS-NH2 (bridge 15-31 via thioacetal) [Example 60] | 81700 pM | 453 pM | 962000 pM | 4830 pM
{C20 diacid}-[γGlu]EKEKEKGS[4Pal]RRSSCFGGRIDRIGHQSGLGCPSFRHGGKSSGAPPPS-NH2 (bridge 15-31 via thioacetal) [Example 67] | 139000 pM | 1220 pM | 1.55e+06 pM | 18800 pM
{C16 diacid}-[γGlu]EKEKEKGEK[βAla]RSSCFGGRIDRIGHYSGLGCPSFRHGGKSSGAPPPS-NH2 (bridge 15-31 via thioacetal) [Example 73] | 5820 pM | 1230 pM | 76400 pM | 26000 pM
EKXRSSCFGKRIDRIGHQSGLGCPSFRHGGKSSGAPPPS (HOOC-(CH2)18-CO-(γGlu)-EKEKEKG-PEG24-EK-βAla-RSS[CFGKRIDRIGHQSGLGC]PSFRHGGKSSGAPPPS-NH2; thioacetal linkage between the bracketed Cys) [Example 3] | 6920 pM | 980 pM | 959000 pM | 36600 pM
EKXRSSCFGKRIDRIGHQSGLGCPSFRHGSPSSGAPPPS (HOOC-(CH2)18-CO-(γGlu)-EKEKEKG-PEG24-EK-βAla-RSS[CFGKRIDRIGHQSGLGC]PSFRHGSPSSGAPPPS-NH2; thioacetal linkage between the bracketed Cys) [Example 4] | 6180 pM | 813 pM | 519000 pM | 22500 pM
{C20 diacid}-[γGlu]EKEKEKGEK[βAla]RSSCFGGRIDRIGHYSGLGCPSFRHGGKSSGAPPPS-NH2 (bridge 15-31 via thioacetal) [Example 74] | 171000 pM | 1590 pM | 1.13e+06 pM | 5820 pM
